Entries after “also recorded” stand apart in the source; their conditions may differ.
How the values were obtained:
[1] = system: antibiotic resistant bacteria; test: Combination of PLNC8 αβ with antibiotics, summary over tested bacteria; type: cell-based; conditions: wide range of antibiotics
Protocol: The broth microdilution method was used to determine minimal inhibitory concentration (MIC) and minimal bactericidal concentration (MBC). Two-fold serial dilutions of the peptides were used and the final concentrations ranged from 0.097-50 μM. […] The effect of bacteriocin-antibiotic combinations was accomplished by using the same concentration series of antibiotics with a constant concentration of PLNC8 αβ (3.1 μM) in all the wells. […] All experiments were repeated at least three times.

[2] = Fluorescence leakage assay (CF release from liposomes); conditions: after 2 min; both the L-form and D-form
Protocol: Liposomes were prepared by dry film formation, hydration and finally extrusion through a polycarbonate membrane to form monodisperse large unilamellar vesicles. […] A dry lipid film was formed by evaporation of the chloroform by nitrogen flow and overnight lyophilization. The film was hydrated with either 10 mM phosphate buffer (PB) pH 7 or 10 mM phosphate buffer saline (PBS) pH 7, and the solution was vortexed for 1 min and put on a shaker for 1 h before extruded 21 times through a 100 nm pore-sized polycarbonate membrane. For fluorescence leakage assay the lipid film was hydrated with buffer (PBS) containing self-quenching concentration (50 mM) of 5(6)-carboxyfluorescein (CF) (Sigma Aldrich) and liposomes were prepared as described above. Removal of unencapsulated CF was done by gel filtration using a PD-25 column (GE Healthcare, Uppsala, Sweden) and liposomes with encapsulated CF were eluted with PBS. Leakage of the liposome encapsulated fluorophore CF due to additions of the bacteriocins was recorded using a fluorescence plate reader (Infinite 200, Tecan, Austria) where λex=485 nm and λem=520 nm. CF was encapsulated at self-quenching concentration, and CF release results in an increased fluorescence signal. […] In order to estimate the maximum release from each sample a final addition of 0.5% Triton X-100 was made at the end of all measurements and the total amount of CF (100% release) was estimated after 15 min incubation. The CF release is presented as percentage release for each time interval (measurements taken every minute). The percentage CF release is calculated as 100×(F−F0)/(FT−F0) where F0 is the initial fluorescence intensity of CF before peptide addition, F is the fluorescence intensity of CF at time point t and FT is the maximum fluorescence after the addition of Triton X-100.

[3] = system: wounds infected with S. aureus; test: Porcine wound model; type: in vivo, pig; conditions: PLNC8αβ 50 μM, every other day, 7 days
From the text: Three wounds were created per condition with the following conditions: control (PBS), […]/gentamicin and […]8 αβ. […] The pig was returned to the pen and monitored during recovery from anesthesia. […] This procedure was repeated every other day for seven days (a total of four doses of treatment of the infected wounds).

[4] = system: S. epidermidis ATCC 12228; test: Sytox Green uptake (membrane permeabilization); type: cell-based, Staphylococcus epidermidis; conditions: 5 μM
Protocol: (§1) The fluorescent dye Sytox® Green, which can only cross damaged membranes and fluoresce upon binding to nucleic acids, was used to study the antimicrobial activity of PLNC8 αβ on S. epidermidis, S. aureus (MSSA, MRSA) and Streptococcus spp. The bacteria were washed and resuspended in Krebs-Ringer Glucose buffer (KRG) (120 mM NaCl, 4.9 mM KCl, 1.2 mM MgSO4, 1.7 mM KH2PO4, 8.3 mM Na2HPO4, and 10 mM glucose, pH 7.3) and incubated in the presence or absence of different combinations of PLNC8 αβ in 96-well microtiter plates for 2 min. Images were captured with Olympus BX41 at 40× magnification.

[5] = system: S. aureus (MSSA and MRSA); test: Sytox Green lysis and time-kill assay; type: cell-based, Staphylococcus aureus
Protocol: as §1

human erythrocytes = test: Hemolysis; type: cell-based; conditions: 0.5-50 μM, 1 h; listed as L-PLNC8 αβ
Protocol: The hemolytic activity of the peptides was investigated by collecting blood from healthy volunteers in heparinized vacutainers. The blood was centrifuged at 600×g for 5 min and the erythrocyte pellet was washed three times in PBS. The cells were then suspended in PBS and added to 96-well plates (15% erythrocyte suspension/well), containing the peptides with two-fold serial dilution. The plates were incubated for 1 h at 37° C. followed by centrifugation for 5 min at 900×g and measurement of the supernatants at 540 nm. Haemolytic activity (%) was calculated by subtracting the negative control from all values and normalization against the positive control (0.5% Triton X-100), that was set to 100%. All experiments, each in duplicate, were repeated three times.

[6] = system: HaCaT cells infected with MSSA; test: Keratinocytes infected with MSSA: LDH, ELISA, RT-qPCR, scratch assay
Protocol: Human keratinocytes (HaCaT) were cultured in Dulbecco's modified Eagle medium (DMEM, Fisher Scientific, New York, USA) supplemented with 10% FBS (FBS, Invitrogen Ltd, Paisley, UK) incubated in a stable environment at 95% air, 5% CO2 and 37° C. The cells were used at passages 1-20.
HaCaT cells were cultured overnight in a 24-well plate at a seed-count of 2×10^5 cells per well. […] Co-stimulation was performed by infection of human keratinocytes, in the presence or absence of PLNC8 αβ, for 24 h, or infection of the cells for 1 h followed by addition of different concentrations of PLNC8 αβ for 6 h. Furthermore, infection of keratinocytes, with or without PLNC8 αβ, were monitored in real-time for 72 hours using IncuCyte Live-cell Analysis System. Bacterial load was quantified by measuring the fluorescence of green fluorescent protein (GFP) and cell viability was determined by measuring the fluorescent dye Draq7 that stains nuclei of dead cells.
ELISA was performed on supernatants retrieved from human keratinocytes that were exposed to MSSA and PLNC8 αβ. The levels of CXCL8 (Human IL-8 ELISA MAX Deluxe, Nordic Biosite, Sweden) and IL-6 (Human IL-6 ELISA MAX Deluxe, Nordic Biosite, Sweden) were quantified according to the manufacturer's instructions.

[7] = references 1, 2; cited from earlier work
[8] = system: Streptococcus spp (S. mutans, S. constellatus, S. anginosus); test: Sytox Green uptake (membrane permeabilization); type: cell-based; conditions: 5 μM, 2 min
Protocol: as §1

[9] = infection 1 h, then peptide 6 h

B1: PLNC8 αβ: two-peptide class IIb bacteriocin of L. plantarum NC8: PLNC8 α (SEQ ID NO 1) with PLNC8 β (SEQ ID NO 2) (peptide)
alpha: DLTTKLWSSWGYYLGKKARWNLKHPYVQF
beta: SVPTSVYTLGIKILWSAYKHRKTIEKSFNKGFYH
modifications: Lactobacillus plantarum NC8
For B1, the “enhancement of the effects of antibiotics” value [1] was 2-130 fold, the lysis of liposomes [2] was “complete lysis of liposomes after 2 min” and the “infection and wound healing in vivo” value [3] was “inhibited infection and promoted wound healing in vivo”. The “perturbation of the plasma membrane of S. epidermidis” value [4] was “equally rapid (2 min)”, the “lysis and killing of S. aureus” value [5] was “dose-dependently and rapidly lysed and killed S. aureus” and the hemolytic activity (human erythrocytes) was “no hemolytic activity was observed; also recorded: low hemolytic activity”. For the same molecule, the “S. aureus-mediated cytotoxicity (LDH) and cell viability” value [6, 9] was “antagonized S. aureus-mediated cytotoxicity and inflammatory responses, and promoted cell viability”, the “secretion of IL-6 and CXCL8” value [6, 9] was “significantly reduced” and the “secretion of IL-6 and CXCL8” value ([6]; infection with MSSA, 24 h) was “reduced bacteria-induced secretion of IL-6 and CXCL8”. For the same molecule, the “wound healing (scratch assay)” value ([6]; infection with MSSA, 24 h) was “promoted wound healing in vitro of human keratinocytes following an infection with S. aureus”, the cell proliferation [7] was “stimulates cell proliferation” and the “relative susceptibility of Streptococcus species” value [8] was “S. constellatus and S. anginosus were more susceptible to PLNC8 αβ than S. mutans”.
